Source: patent US20240182536A1 (MURAL ONCOLOGY, published 2024)
Changes are numbered by the printed parent chain. Names may count otherwise.

B1: IL-18 variant G3S, E6H, K53Y, D54P, S55Y, T63S, N91A, R104S (ligand)
chain: YFSKLHSKLSVIRNLNDQVLFIDQGNRPLFEDMTDSDMRDNAPRTIFIISMYYPYQPRGMAVSISVKSEKISTLSSENKIISFKEMNPPDAIKDTKSDIIFFQSSVPGHDNKMQFESSSYEGYFLASEKERDLFKLILKKEDELGDRSIMFTVQNED
B2: IL-18 variant G3L, E6Q, T63S, N91L, R104P (ligand)
chain: B1 chain with S3L, H6Q, Y53K, P54D, Y55S, A91L, S104P
B3: IL-18 variant G3P, E6S, K53N, D54Y, S55P, T63I, N91K, R104H (ligand)
chain: B1 chain with S3P, H6S, Y53N, P54Y, Y55P, S63I, A91K, S104H
B4: IL-18 variant G3Q, E6H, S7Y, D23A, R27S, D54S, S55R, T63F, N91F, R104Q (ligand)
chain: B1 chain with S3Q, S7Y, D23A, R27S, Y53K, P54S, Y55R, S63F, A91F, S104Q
B5: IL-18 variant G3P, E6I, K53N, D54W, S55P, T63S, N91L, R104Q (ligand)
chain: B1 chain with S3P, H6I, Y53N, P54W, Y55P, A91L, S104Q
B6: IL-18 variant G3L, E6Q, T63H, N91M, R104H (ligand)
chain: B1 chain with S3L, H6Q, Y53K, P54D, Y55S, S63H, A91M, S104H
B7: IL-18 variant T34M, S36T, D37E, D40T, N41M, K53T, S55W (ligand)
chain: YFGKLESKLSVIRNLNDQVLFIDQGNRPLFEDMMDTEMRTMAPRTIFIISMYTDWQPRGMAVTISVKSEKISTLSSENKIISFKEMNPPDNIKDTKSDIIFFQRSVPGHDNKMQFESSSYEGYFLASEKERDLFKLILKKEDELGDRSIMFTVQNED

Experiments:
Experiment in all cases: cell-based or functional assay
[1] = biological target: T1, IL-18 receptors on HEK-Blue IL-18 reporter cells (UniProt Q13478 19-541; O95256 20-599, limits assumed)
T1 sequence (looked up) 1: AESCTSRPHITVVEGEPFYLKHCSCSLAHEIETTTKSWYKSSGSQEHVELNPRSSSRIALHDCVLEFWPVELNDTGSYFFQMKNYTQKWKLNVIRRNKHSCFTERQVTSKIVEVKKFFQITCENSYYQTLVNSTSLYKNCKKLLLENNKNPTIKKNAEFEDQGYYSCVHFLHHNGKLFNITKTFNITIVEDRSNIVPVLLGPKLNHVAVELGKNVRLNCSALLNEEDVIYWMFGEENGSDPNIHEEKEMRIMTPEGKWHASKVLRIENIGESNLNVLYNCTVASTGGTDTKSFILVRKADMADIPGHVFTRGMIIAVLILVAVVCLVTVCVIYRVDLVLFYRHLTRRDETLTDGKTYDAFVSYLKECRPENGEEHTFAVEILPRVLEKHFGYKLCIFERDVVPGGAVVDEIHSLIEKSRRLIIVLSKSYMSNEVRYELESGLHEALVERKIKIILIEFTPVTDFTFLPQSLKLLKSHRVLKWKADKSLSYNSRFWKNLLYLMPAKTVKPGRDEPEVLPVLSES
T1 sequence (looked up) 2: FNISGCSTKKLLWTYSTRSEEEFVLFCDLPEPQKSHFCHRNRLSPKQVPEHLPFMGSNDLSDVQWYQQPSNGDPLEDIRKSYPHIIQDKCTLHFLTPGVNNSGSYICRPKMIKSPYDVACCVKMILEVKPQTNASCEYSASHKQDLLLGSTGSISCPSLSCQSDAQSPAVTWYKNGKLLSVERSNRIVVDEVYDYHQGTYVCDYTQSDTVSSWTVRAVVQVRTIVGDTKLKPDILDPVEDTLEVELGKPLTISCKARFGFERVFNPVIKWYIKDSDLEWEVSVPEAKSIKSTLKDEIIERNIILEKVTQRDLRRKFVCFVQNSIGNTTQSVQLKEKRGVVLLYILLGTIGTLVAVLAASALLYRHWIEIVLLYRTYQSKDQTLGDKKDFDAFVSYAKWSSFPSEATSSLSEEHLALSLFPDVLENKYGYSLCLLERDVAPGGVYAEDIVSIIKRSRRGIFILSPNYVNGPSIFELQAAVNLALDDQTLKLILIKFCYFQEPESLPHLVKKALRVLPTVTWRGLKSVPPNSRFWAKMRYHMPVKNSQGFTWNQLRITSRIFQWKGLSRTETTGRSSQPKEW

[2] = biological target: T2, IL-18 binding protein (IL-18BP) (UniProt O95998 31-194)
T2 sequence (looked up): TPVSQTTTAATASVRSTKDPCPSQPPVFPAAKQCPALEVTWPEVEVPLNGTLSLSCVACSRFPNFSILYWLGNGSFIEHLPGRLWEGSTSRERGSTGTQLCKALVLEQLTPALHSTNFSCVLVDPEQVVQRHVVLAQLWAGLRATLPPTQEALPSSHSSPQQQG

[3] = biological target: T3, IL-18 receptors on HEK-Blue IL-18 reporter cells (UniProt Q13478 19-541; O95256 20-599, limits assumed); remark: listed apart in the source
T3 sequence (looked up) 1: T1 sequence (looked up) 1
T3 sequence (looked up) 2: T1 sequence (looked up) 2

[4] = biological target: T4, interleukin 18 binding protein (IL-18BP) (UniProt O95998 31-194)
T4 sequence (looked up): T2 sequence (looked up)

Row | Binder | Activity, No BP, DF-100000 [1] | Activity, No BP, DF-500000 [1] | Activity, No BP, DF-2500000 [1] | Activity, +100 nM BP, DF-1000002 [2] | Activity, +100 nM BP, DF-5000003 [2] | Activity, +100 nM BP, DF-25000004 [2] | Ratio (-BP/+BP), DF-1000005 [2] | Ratio (-BP/+BP), DF-5000006 [2] | Ratio (-BP/+BP), DF-25000007 [2] | HEK-Blue activity, No BP, DF-10000 [3] | HEK-Blue activity, No BP, DF-100,000 [3] | HEK-Blue activity, No BP, DF-1,000,000 [3] | HEK-Blue activity, +100 nM BP, DF-10000 [4] | HEK-Blue activity, +100 nM BP, DF-100,000 [4] | HEK-Blue activity, +100 nM BP, DF-1,000,000 [4] | Ratio (-BP/+BP), DF-10000 [4] | Ratio (-BP/+BP), DF-100,000 [4] | Ratio (-BP/+BP), DF-1,000,000 [4]
1 | B1 | 0.09 | 0.09 | 0.07 | 0.07 | 0.08 | 0.08 | 1.18 | 1.1 | 0.95 | – | – | – | – | – | – | – | – | –
2 | B2 | 0.15 | 0.09 | 0.1 | 0.1 | 0.08 | 0.07 | 1.44 | 1.11 | 1.34 | – | – | – | – | – | – | – | – | –
3 | B3 | 0.07 | 0.07 | 0.07 | 0.07 | 0.07 | 0.07 | 1.03 | 0.94 | 0.95 | – | – | – | – | – | – | – | – | –
4 | B4 | 0.08 | 0.08 | 0.07 | 0.07 | 0.08 | 0.07 | 1.12 | 1.01 | 1.04 | – | – | – | – | – | – | – | – | –
5 | B5 | 0.07 | 0.08 | 0.07 | 0.08 | 0.09 | 0.07 | 0.91 | 0.91 | 0.97 | – | – | – | – | – | – | – | – | –
6 | B6 | 0.16 | 0.09 | 0.11 | 0.08 | 0.07 | 0.07 | 2.02 | 1.16 | 1.47 | – | – | – | – | – | – | – | – | –
7 | B7 | – | – | – | – | – | – | – | – | – | 0.29 | 0.21 | 0.19 | 0.14 | 0.12 | 0.12 | 2.13 | 1.79 | 1.63
